Tests used:
[1] = target: Skp1tr-F-box^Fbw7 complex (human) (UniProt P63208); experiment: SPR
Target sequence in this assay (P63208 other isoform, or with tags, fused parts or gaps, chain 1 of 2): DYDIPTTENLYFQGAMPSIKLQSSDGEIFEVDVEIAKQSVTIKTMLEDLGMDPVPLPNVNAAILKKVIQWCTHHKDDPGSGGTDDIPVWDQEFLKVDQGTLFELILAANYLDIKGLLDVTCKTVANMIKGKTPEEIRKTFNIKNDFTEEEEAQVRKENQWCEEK
Target sequence in this assay (Q969H0 other isoform, or with tags, fused parts or gaps, chain 2 of 2, further chain): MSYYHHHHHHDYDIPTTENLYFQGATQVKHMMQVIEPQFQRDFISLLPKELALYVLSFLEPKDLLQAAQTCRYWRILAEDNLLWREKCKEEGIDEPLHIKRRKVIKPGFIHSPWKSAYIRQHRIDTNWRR

[2] = target: Skp1tr-F-box^Fbw7 complex (human) (UniProt P63208); experiment: ELISA
Target sequence in this assay (P63208 other isoform, or with tags, fused parts or gaps, chain 1 of 2): as the sequence (P63208 other isoform, or with tags, fused parts or gaps, chain 1 of 2) above
Target sequence in this assay (Q969H0 other isoform, or with tags, fused parts or gaps, chain 2 of 2, further chain): as the sequence (Q969H0 other isoform, or with tags, fused parts or gaps, chain 2 of 2, further chain) above

[3] = target: Skp1tr-F-box^Fbw7 complex (human) (UniProt P63208); experiment: SPR, complex immobilised, Cul1 NTD injected

Cul1 N-terminal domain (NTD) (from UniProt Q13616 1-410)
Kd [1]: 3.6 nM
EC50 [2]: 11 nM
fold weaker than with Skp1-F-box^Fbw7 [3]: 1000 fold

— patent US20200299342A1
